{"source": "paper PMC13276077", "assay_in_all_cases": "EMSA", "key": {"[1]": {"molecular_target": "MeCP2 AT-DIRmut R188G;R190G;K254N;K256N;R268Q (Homo sapiens) (UniProt P51608)", "details": "apparent, competitor DNA, EMSA: 20 mM HEPES pH 7.5, 75 mM NaCl, 125 mM KCl, 50 uM EDTA, 2.5 mM beta-mercaptoethanol, 5% glycerol, BSA, 1.58 uM 47 bp competitor DNA (absent in free DNA …)"}, "[2]": {"molecular_target": "MeCP2 AT-DIRmut;histone octamer R188G;R190G;K254N;K256N;R268Q|H2B T115C;H3.1 C96S;C110A (Homo sapiens;) (UniProt P51608+P0C0S8+P62807+P68431+P62805)", "details": "20 mM HEPES pH 7.5, 75 mM NaCl, 125 mM KCl, 50 uM EDTA, 2.5 mM beta-mercaptoethanol, 5% glycerol, BSA, 1.58 uM 47 bp competitor DNA (nucleosome assays), absent …, low values mean tight binding"}, "MeCP2 MBD (Homo sapiens)": {"molecular_target": "MeCP2 MBD (Homo sapiens) (UniProt P51608)", "details": "EMSA: 20 mM HEPES pH 7.5, 75 mM NaCl, 125 mM KCl, 50 uM EDTA, 2.5 mM beta-mercaptoethanol, 5% glycerol, BSA, 1.58 uM 47 bp competitor DNA (absent in free DNA …)"}, "[3]": {"molecular_target": "MeCP2 MBD;histone octamer H2B T115C;H3.1 C96S;C110A (Homo sapiens;) (UniProt P51608+P0C0S8+P62807+P68431+P62805)", "details": "20 mM HEPES pH 7.5, 75 mM NaCl, 125 mM KCl, 50 uM EDTA, 2.5 mM beta-mercaptoethanol, 5% glycerol, BSA, 1.58 uM 47 bp competitor DNA (nucleosome assays), absent …, low values mean tight binding"}, "[4]": {"molecular_target": "MeCP2 full-length, e2 isoform (Homo sapiens) (UniProt P51608)", "details": "EMSA: 20 mM HEPES pH 7.5, 75 mM NaCl, 125 mM KCl, 50 uM EDTA, 2.5 mM beta-mercaptoethanol, 5% glycerol, BSA, 1.58 uM 47 bp competitor DNA (absent in free DNA …)"}, "[5]": {"molecular_target": "MeCP2 full-length, e2 isoform;histone H1.0;histone octamer H2B T115C;H3.1 C96S;C110A (Homo sapiens;Homo sapiens;) (UniProt P51608+P07305+P0C0S8+P62807+P68431+P62805)", "details": "20 mM HEPES pH 7.5, 75 mM NaCl, 125 mM KCl, 50 uM EDTA, 2.5 mM beta-mercaptoethanol, 5% glycerol, BSA, 1.58 uM 47 bp competitor DNA (nucleosome assays), absent …, low values mean tight binding"}, "[6]": {"molecular_target": "MeCP2 full-length, e2 isoform;histone octamer H2B T115C;H3.1 C96S;C110A (Homo sapiens;) (UniProt P51608+P0C0S8+P62807+P68431+P62805)", "details": "20 mM HEPES pH 7.5, 75 mM NaCl, 125 mM KCl, 50 uM EDTA, 2.5 mM beta-mercaptoethanol, 5% glycerol, BSA, 1.58 uM 47 bp competitor DNA (nucleosome assays), absent …, low values mean tight binding"}, "[7]": {"molecular_target": "HisMBP-MeCP2 162-309 (Homo sapiens) (UniProt P51608)", "details": "apparent, competitor DNA, EMSA: 20 mM HEPES pH 7.5, 75 mM NaCl, 125 mM KCl, 50 uM EDTA, 2.5 mM beta-mercaptoethanol, 5% glycerol, BSA, 1.58 uM 47 bp competitor DNA (absent in free DNA …)"}, "[8]": {"molecular_target": "MeCP2 R133G R133G (Homo sapiens) (UniProt P51608)", "details": "apparent, competitor DNA, EMSA: 20 mM HEPES pH 7.5, 75 mM NaCl, 125 mM KCl, 50 uM EDTA, 2.5 mM beta-mercaptoethanol, 5% glycerol, BSA, 1.58 uM 47 bp competitor DNA (absent in free DNA …)"}, "[9]": {"details": "meCpG at +83, -61, -80 bp from dyad"}}}
{"sequence": "GCTTCACCTCGTGACCCAAGCGACACCGGCACTGGGACAGGATGTATATATGTGACACGTGCCTGGAGACTAGGGAGTAATCCCCTTGGCGGTTAAAACGCGGGGGACAGCGCGTACGTGCGTTTAAGCGGTGCTAGAGCTGTCTACGACCAATTGAGCGGCCTCGGCACCGGGATTCTCCAGGGGATCCGGCATCATGGTCTAGAGCG (double strand) [37-N601-27 nucleosome -1 meCpG]", "values": [{"measurement": "Kd", "setting": "[1]; meCpG at -1 (GACAGCGCGTAC)", "value": 0.119, "unit": "µM"}, {"measurement": "Kd", "setting": "[2]; meCpG at -1 (GACAGCGCGTAC)", "value": 0.119, "unit": "µM"}, {"measurement": "Kd", "setting": "MeCP2 MBD (Homo sapiens); meCpG at -1 (GACAGCGCGTAC)", "value": 0.234, "unit": "µM"}, {"measurement": "Kd", "setting": "[3]; meCpG at -1 (GACAGCGCGTAC)", "value": 0.234, "unit": "µM"}, {"measurement": "Kd", "setting": "[4]; apparent, H1.0 prebound (chromatosome), competitor DNA, meCpG at -1 (GACAGCGCGTAC)", "value": 0.0804, "unit": "µM"}, {"measurement": "Kd", "setting": "[4]; meCpG at -1 (GACAGCGCGTAC)", "value": 0.0721, "unit": "µM"}, {"measurement": "Kd", "setting": "[5]; meCpG at -1 (GACAGCGCGTAC)", "value": 0.0804, "unit": "µM"}, {"measurement": "Kd", "setting": "[6]; meCpG at -1 (GACAGCGCGTAC)", "value": 0.0721, "unit": "µM"}]}
{"sequence": "GCTTCACCTCGTGACCCAAGCGACACCGGCACTGGGACAGGATGTATATATGTGACACGTGCCTGGAGACTAGGGAGTAATCCCCTTGGCGGTTAAAACGCGGGGGACAGCGCGTACGTGCGTTTAAGCGGTGCTAGAGCTGTCTACGACCAATTGAGCGGCCTCGGCACCGGGATTCTCCAGGGGATCCGGCATCATGGTCTAGAGCG (double strand) [37-N601-27 nucleosome 3x meCpG]", "values": [{"measurement": "Kd", "setting": "[1]; [9]", "value": 0.0425, "unit": "µM"}, {"measurement": "Kd", "setting": "[2]; [9]", "value": 0.0425, "unit": "µM"}, {"measurement": "Kd", "setting": "MeCP2 MBD (Homo sapiens); [9]", "value": 0.0679, "unit": "µM"}, {"measurement": "Kd", "setting": "[3]; [9]", "value": 0.0679, "unit": "µM"}, {"measurement": "Kd", "setting": "[4]; apparent, H1.0 prebound (chromatosome), competitor DNA, meCpG at +83, -61, -80 bp from dyad", "value": 0.046, "unit": "µM"}, {"measurement": "Kd", "setting": "[4]; [9]", "value": 0.0375, "unit": "µM"}, {"measurement": "Kd", "setting": "[5]; [9]", "value": 0.046, "unit": "µM"}, {"measurement": "Kd", "setting": "[6]; [9]", "value": 0.0375, "unit": "µM"}]}
{"sequence": "GAGCCACAAAATCACCGACGCTCACGGGTGCCCAGTTCGCGCGCCCACCTACCGTGTGAAGTCGTCACTCGGGCTTCTAAGTACGCTTAGCGCACGGTAGAGCGCAATCCAAGGCTAACCACCGTGCATCGATGTTGAAAGAGGCCCTCCGTCCTTATTACTTCAAGTCCCTGGGGTACCCGTTTCACTGCCA (double strand) [16-N603-30 nucleosome unmethylated]", "values": [{"measurement": "Kd", "setting": "[7]", "value": 0.0946, "unit": "µM"}, {"measurement": "Kd", "setting": "MeCP2 MBD (Homo sapiens)", "value": 0.716, "unit": "µM"}, {"measurement": "Kd", "setting": "[8]", "value": 0.188, "unit": "µM"}, {"measurement": "Kd", "setting": "[4]", "value": 0.0949, "unit": "µM"}]}
{"sequence": "GAGCCACAAAATCACCGACGCTCACGGGTGCCCAGTTCGCGCGCCCACCTACCGTGTGAAGTCGTCACTCGGGCTTCTAAGTACGCTTAGCGCACGGTAGAGCGCAATCCAAGGCTAACCACCGTGCATCGATGTTGAAAGAGGCCCTCCGTCCTTATTACTTCAAGTCCCTGGGGTACCCGTTTCACTGCCA (double strand) [16-N603-30 nucleosome 91 meCpA]", "values": [{"measurement": "Kd", "setting": "[7]; asymmetric meCpA at 91", "value": 0.103, "unit": "µM"}, {"measurement": "Kd", "setting": "MeCP2 MBD (Homo sapiens); asymmetric meCpA at 91", "value": 0.0857, "unit": "µM"}, {"measurement": "Kd", "setting": "[8]; asymmetric meCpA at 91", "value": 0.162, "unit": "µM"}, {"measurement": "Kd", "setting": "[4]; asymmetric meCpA at 91", "value": 0.0571, "unit": "µM"}]}
{"sequence": "ATGGAACACATTGCACAGGATGTATATATCTGACACGTGCCTGGAGACTAGGGAGTAATCCCCTTGGCGGTTAAAACGCGGGGGACAGCGCGTACGTGCGTTTAAGCGGTGCTAGAGCTGTCTACGACCAATTGAGCGGCCTCGGCACCGGGATTCTCCAGGGCGGCCGCGTATT (double strand) [15-N601-15 nucleosome unmethylated]", "values": [{"measurement": "Kd", "setting": "[7]", "value": 0.24, "unit": "µM"}, {"measurement": "Kd", "setting": "MeCP2 MBD (Homo sapiens)", "value": 1, "unit": "µM"}, {"measurement": "Kd", "setting": "[8]", "value": 0.596, "unit": "µM"}, {"measurement": "Kd", "setting": "[4]", "value": 0.221, "unit": "µM"}]}
{"sequence": "GCTTCACCTCGTGACCCAAGCGACACCGGCACTGGGACAGGATGTATATATGTGACACGTGCCTGGAGACTAGGGAGTAATCCCCTTGGCGGTTAAAACGCGGGGGACAGCGCGTACGTGCGTTTAAGCGGTGCTAGAGCTGTCTACGACCAATTGAGCGGCCTCGGCACCGGGATTCTCCAGGGGATCCGGCATCATGGTCTAGAGCG (double strand) [37-N601-27 nucleosome unmethylated]", "values": [{"measurement": "Kd", "setting": "[2]", "value": 0.167, "unit": "µM"}, {"measurement": "Kd", "setting": "MeCP2 MBD (Homo sapiens)", "value": 0.279, "unit": "µM"}, {"measurement": "Kd", "setting": "[3]", "value": 0.279, "unit": "µM"}, {"measurement": "Kd", "setting": "[4]", "value": 0.137, "unit": "µM"}, {"measurement": "Kd", "setting": "[4]; apparent, H1.0 prebound (chromatosome), competitor DNA", "value": 0.165, "unit": "µM"}, {"measurement": "Kd", "setting": "[5]", "value": 0.165, "unit": "µM"}, {"measurement": "Kd", "setting": "[6]", "value": 0.137, "unit": "µM"}]}
